For 4 molecules, Kd results are on record in article PMC3790809 (2013).

Experiment [1] has as its target untagged YsaL (YE3555). The experiment in a line: SPR. A general note: SPR reads the build-up and loss of mass on a sensor chip optically.
The target of experiment [2] is untagged YsaL (YE3555). Put plainly: SPR; refolded YsaN.
The target in experiment [3] is untagged YsaL (YE3555). The experiment in a line: SPR. The source holds these as a separate data set.
For experiment [4], the target named is untagged YsaL (YE3555). The experiment in a line: SPR. This is another data set of the same source.

B1: YsaNΔ(411–430)-His (domain or fragment)
chain: MNLFDSCAHPSRIHGCLLEAPLHGVFIGEICLIERDLCQPEVIAKAQVVGFKEGQTILSLIGRAQGLTREVVIRPTGQPFVFEMGEHLAGKIYNAAGEEVGVLSNATASSEPLFTTLCRVDNPPVSVNLRRPVTTPLVTGVRAIDGLLTCGQGQRMGIFAAAGSGKTSLMSMIMNHAVADICVIALIGERGREVTEFIHELQTSPRAAQTILVYATSDSPAVERCNAALLATAMAEYFRDQGKDVLLFVDSMTRYARALRDVALAAGELPARRGYPASVFEQLPLLLERPGALQHGSITAFYTVLLESEEESDPIGDEIRSIIDGHIYLSAQLAGRGHYPAIDILHSISRVFSKVTTPQHRQDAAKTRDMLGRLAQIQLYLDLGEYQRGENTDNDHALDNRDVIEGFLQQ
As usually defined, the Kd is the constant that tells how readily two partners part at equilibrium. Low readings indicate a tighter complex, high ones a looser complex. The molecule B1 displayed a Kd with untagged YsaL (YE3555) [1] of 260 nM.

B2: YsaNflr-His (full length YsaN, refolded) (enzyme)
chain: MNLFDSCAHPSRIHGCLLEAPLHGVFIGEICLIERDLCQPEVIAKAQVVGFKEGQTILSLIGRAQGLTREVVIRPTGQPFVFEMGEHLAGKIYNAAGEEVGVLSNATASSEPLFTTLCRVDNPPVSVNLRRPVTTPLVTGVRAIDGLLTCGQGQRMGIFAAAGSGKTSLMSMIMNHAVADICVIALIGERGREVTEFIHELQTSPRAAQTILVYATSDSPAVERCNAALLATAMAEYFRDQGKDVLLFVDSMTRYARALRDVALAAGELPARRGYPASVFEQLPLLLERPGALQHGSITAFYTVLLESEEESDPIGDEIRSIIDGHIYLSAQLAGRGHYPAIDILHSISRVFSKVTTPQHRQDAAKTRDMLGRLAQIQLYLDLGEYQRGENTDNDHALDNRDVIEGFLQQAMEEPGEFSTTLNQLRELAN
As to B2, the Kd with untagged YsaL (YE3555) [2] amounted to 42 nM.

B3: YsaNΔ(1–5)-His (domain or fragment)
chain: SCAHPSRIHGCLLEAPLHGVFIGEICLIERDLCQPEVIAKAQVVGFKEGQTILSLIGRAQGLTREVVIRPTGQPFVFEMGEHLAGKIYNAAGEEVGVLSNATASSEPLFTTLCRVDNPPVSVNLRRPVTTPLVTGVRAIDGLLTCGQGQRMGIFAAAGSGKTSLMSMIMNHAVADICVIALIGERGREVTEFIHELQTSPRAAQTILVYATSDSPAVERCNAALLATAMAEYFRDQGKDVLLFVDSMTRYARALRDVALAAGELPARRGYPASVFEQLPLLLERPGALQHGSITAFYTVLLESEEESDPIGDEIRSIIDGHIYLSAQLAGRGHYPAIDILHSISRVFSKVTTPQHRQDAAKTRDMLGRLAQIQLYLDLGEYQRGENTDNDHALDNRDVIEGFLQQAMEEPGEFSTTLNQLRELAN
In the experiment with untagged YsaL (YE3555) [3], B3 returned a Kd of 500000 nM.

B4: YsaNΔ(426–430)-His (domain or fragment)
chain: MNLFDSCAHPSRIHGCLLEAPLHGVFIGEICLIERDLCQPEVIAKAQVVGFKEGQTILSLIGRAQGLTREVVIRPTGQPFVFEMGEHLAGKIYNAAGEEVGVLSNATASSEPLFTTLCRVDNPPVSVNLRRPVTTPLVTGVRAIDGLLTCGQGQRMGIFAAAGSGKTSLMSMIMNHAVADICVIALIGERGREVTEFIHELQTSPRAAQTILVYATSDSPAVERCNAALLATAMAEYFRDQGKDVLLFVDSMTRYARALRDVALAAGELPARRGYPASVFEQLPLLLERPGALQHGSITAFYTVLLESEEESDPIGDEIRSIIDGHIYLSAQLAGRGHYPAIDILHSISRVFSKVTTPQHRQDAAKTRDMLGRLAQIQLYLDLGEYQRGENTDNDHALDNRDVIEGFLQQAMEEPGEFSTTLNQL
In the experiment with untagged YsaL (YE3555) [4], B4 had a Kd of 114 nM.
